Experimental findings from article PMC3085951 (Journal of controlled release : official journal of the …, 2011) are described below.

Assay [1] deals with T1, MT1-160p (MT1-MMP amino acids 160-174) (human).
T1 peptide: REVPYAYIREGHEKQ
Description: ELISA.

Assay [2] deals with recombinant human MT1-MMP catalytic domain (human, UniProt P50281 114-287). As to the kind of experiment: ELISA. (ELISA stands for enzyme-linked immunosorbent assay.)

What is called Kd is the concentration at which binding is half-saturated. Take HWKHLHNTKTFL [phage-displayed MT1-AF7p]: in assay [1], the Kd came out at 0.075 nM. Regarding HWKHLHNTKTFL [MT1-AF7p], the Kd in assay [2] turned out to be 47.4 nM.
